Measurements as given in patent EP4772193A1 (Teijin Pharma Limited, dated 2026).
Positions count from the first letter of the chain named. Names may count otherwise.

T1: recombinant human soluble gpNMB (recombinant human gpNMB-FLAG-His) (human, UniProt Q14956 23-498)
T1 sequence: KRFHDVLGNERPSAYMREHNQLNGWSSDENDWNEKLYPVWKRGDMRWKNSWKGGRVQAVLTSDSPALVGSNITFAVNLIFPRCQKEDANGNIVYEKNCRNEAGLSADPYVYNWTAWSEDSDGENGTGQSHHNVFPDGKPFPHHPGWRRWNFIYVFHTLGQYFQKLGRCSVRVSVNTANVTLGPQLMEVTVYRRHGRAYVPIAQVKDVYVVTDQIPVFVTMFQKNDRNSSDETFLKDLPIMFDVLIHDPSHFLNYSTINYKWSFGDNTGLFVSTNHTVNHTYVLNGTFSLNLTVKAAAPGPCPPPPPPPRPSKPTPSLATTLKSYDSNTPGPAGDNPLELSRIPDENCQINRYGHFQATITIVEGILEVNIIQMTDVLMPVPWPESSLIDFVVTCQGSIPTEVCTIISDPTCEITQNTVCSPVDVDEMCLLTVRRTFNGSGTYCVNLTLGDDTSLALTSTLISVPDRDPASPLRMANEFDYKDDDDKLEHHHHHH

B1: hGPN18-2_H2L3 VH N104A (antibody, V domains shown)
VH: QVQLVQSGPGLVQPTQTLTLTCSFSGFSLSTSVMGVGWIRQPSGKGLEWLADIWWDDDKDYNPSLKSRLTISKDTSKNQVVLTMTNMDTVDTATYYCARTYYSAYEYYGMDYWGQGTLVTVSS
VL: DIVMTQSPDSLAVSLGERATINCRSSQTIILSNGNTYLEWYQQKPGQPPKLLIYKVSNRFSGVPDRFSGSGSGTDFTLTISSLQAEDVAVYYCFQGSHVPFTFGSGTKLEIKR
B2: hGPN18-2_H2L3 VH T100A (antibody, V domains shown)
VH: B1 VH with T100A, A104N
VL: B1 VL
B3: hGPN18-2_H2L3 VH L65A (antibody, V domains shown)
VH: B1 VH with L65A, A104N
VL: B1 VL
B4: hGPN18-2_H2L3 VH S64A (antibody, V domains shown)
VH: B1 VH with S64A, A104N
VL: B1 VL
B5: hGPN18-2_H2L3 VH P63A (antibody, V domains shown)
VH: B1 VH with P63A, A104N
VL: B1 VL
B6: hGPN18-2_H2L3 VH Y61A (antibody, V domains shown)
VH: B1 VH with Y61A, A104N
VL: B1 VL
B7: hGPN18-2_H2L3 VH K66A (antibody, V domains shown)
VH: B1 VH with K66A, A104N
VL: B1 VL
B8: hGPN18-2_H2L3 VH S67A (antibody, V domains shown)
VH: B1 VH with S67A, A104N
VL: B1 VL
B9: hGPN18-2_H2L3 VH R99A (antibody, V domains shown)
VH: B1 VH with R99A, A104N
VL: B1 VL
B10: hGPN18-2_H2L3 VH M110A (antibody, V domains shown)
VH: B1 VH with A104N, M110A
VL: B1 VL
B11: hGPN18-2_H2L3 VH G109A (antibody, V domains shown)
VH: B1 VH with A104N, G109A
VL: B1 VL
B12: hGPN18-2_H2L3 VH D111A (antibody, V domains shown)
VH: B1 VH with A104N, D111A
VL: B1 VL
B13: hGPN18-2_H2L3 VH S103A (antibody, V domains shown)
VH: B1 VH with S103A, A104N
VL: B1 VL
B14: hGPN18-2_H2L3 VH N62A (antibody, V domains shown)
VH: B1 VH with N62A, A104N
VL: B1 VL
B15: hGPN18-2_H2L3 VH Y101A (antibody, V domains shown)
VH: B1 VH with Y101A, A104N
VL: B1 VL
B16: hGPN18-2_H2L3 VH E106A (antibody, V domains shown)
VH: B1 VH with A104N, E106A
VL: B1 VL
B17: hGPN18-2_H2L3 VH D52A (antibody, V domains shown)
VH: B1 VH with D52A, A104N
VL: B1 VL
B18: hGPN18-2_H2L3 VH D56A (antibody, V domains shown)
VH: B1 VH with D56A, A104N
VL: B1 VL
B19: hGPN18-2_H2L3 VH G37A (antibody, V domains shown)
VH: B1 VH with G37A, A104N
VL: B1 VL
B20: hGPN18-2_H2L3 VH M34A (antibody, V domains shown)
VH: B1 VH with M34A, A104N
VL: B1 VL
B21: hGPN18-2_H2L3 VH F27A (antibody, V domains shown)
VH: B1 VH with F27A, A104N
VL: B1 VL
B22: hGPN18-2_H2L3 VH V36A (antibody, V domains shown)
VH: B1 VH with V36A, A104N
VL: B1 VL
B23: hGPN18-2_H2L3 VH K59A (antibody, V domains shown)
VH: B1 VH with K59A, A104N
VL: B1 VL
B24: hGPN18-2_H2L3 VH T31A (antibody, V domains shown)
VH: B1 VH with T31A, A104N
VL: B1 VL
B25: hGPN18-2_H2L3 VH W54A (antibody, V domains shown)
VH: B1 VH with W54A, A104N
VL: B1 VL
B26: hGPN18-2_H2L3 VH S28A (antibody, V domains shown)
VH: B1 VH with S28A, A104N
VL: B1 VL
B27: hGPN18-2_H2L3 VH G35A (antibody, V domains shown)
VH: B1 VH with G35A, A104N
VL: B1 VL
B28: hGPN18-2_H2L3 VH W55A (antibody, V domains shown)
VH: B1 VH with W55A, A104N
VL: B1 VL
B29: hGPN18-2_H2L3 VH S30A (antibody, V domains shown)
VH: B1 VH with S30A, A104N
VL: B1 VL
B30: hGPN18-2_H2L3 VH G26A (antibody, V domains shown)
VH: B1 VH with G26A, A104N
VL: B1 VL
B31: hGPN18-2_H2L3 VH D60A (antibody, V domains shown)
VH: B1 VH with D60A, A104N
VL: B1 VL
B32: hGPN18-2_H2L3 VH L29A (antibody, V domains shown)
VH: B1 VH with L29A, A104N
VL: B1 VL
B33: hGPN18-2_H2L3 VH I53A (antibody, V domains shown)
VH: B1 VH with I53A, A104N
VL: B1 VL
B34: hGPN18-2_H2L3 VH S32A (antibody, V domains shown)
VH: B1 VH with S32A, A104N
VL: B1 VL
B35: hGPN18-2_H2L3 VH V33A (antibody, V domains shown)
VH: B1 VH with V33A, A104N
VL: B1 VL
B36: hGPN18-2_H2L3 VH D58A (antibody, V domains shown)
VH: B1 VH with D58A, A104N
VL: B1 VL
B37: hGPN18-2_H2L3 VH D57A (antibody, V domains shown)
VH: B1 VH with D57A, A104N
VL: B1 VL

biological target: T1, recombinant human soluble gpNMB …; test: antigen ELISA, vs hGPN18-2_H2L3

Q: With B1 as the binder, how does the Relative binding activity read?
A: 0.8

Q: With B2 as the binder, how does the Relative binding activity read?
A: 0.47

Q: Which Relative binding activity does the source give for B3 here?
A: 0.94

Q: With B4 as the binder, how does the Relative binding activity read?
A: 1.09

Q: Which Relative binding activity does the source give for B5 here?
A: 0.43

Q: With B6 as the binder, how does the Relative binding activity read?
A: 0.7

Q: With B7 as the binder, how does the Relative binding activity read?
A: 0.96

Q: For B8, which Relative binding activity is on record?
A: 1.01

Q: B9 was tested. Which Relative binding activity did it give?
A: 0.37

Q: For B10, which Relative binding activity is on record?
A: 0.41

Q: For B11, which Relative binding activity is on record?
A: 0.61

Q: Which Relative binding activity does the source give for B12 here?
A: 0.62

Q: With B13 as the binder, how does the Relative binding activity read?
A: 0.94

Q: Which Relative binding activity does the source give for B14 here?
A: 0.97

Q: With B15 as the binder, how does the Relative binding activity read?
A: 0.61

Q: How did the Relative binding activity turn out when B16 was run?
A: 0.64

biological target: T1, recombinant human soluble gpNMB …; test: antigen ELISA

Q: How did the EC50 turn out when B1 was run?
A: 5.62 nM

Q: Which EC50 does the source give for B2 here?
A: 8.44 nM

Q: With B3 as the binder, how does the EC50 read?
A: 5.04 nM

Q: With B4 as the binder, how does the EC50 read?
A: 3.59 nM

Q: With B5 as the binder, how does the EC50 read?
A: 12 nM

Q: Which EC50 does the source give for B6 here?
A: 7.55 nM

Q: For B7, which EC50 is on record?
A: 4.96 nM

Q: With B8 as the binder, how does the EC50 read?
A: 4.25 nM

Q: B9 was tested. Which EC50 did it give?
A: 10.6 nM

Q: B10 was tested. Which EC50 did it give?
A: 23.4 nM

Q: Which EC50 does the source give for B11 here?
A: 10.5 nM

Q: With B12 as the binder, how does the EC50 read?
A: 11.3 nM

Q: For B13, which EC50 is on record?
A: 4.04 nM

Q: For B14, which EC50 is on record?
A: 4.58 nM

Q: How did the EC50 turn out when B15 was run?
A: 7.68 nM

Q: How did the EC50 turn out when B16 was run?
A: 10.8 nM

biological target: T1, recombinant human soluble gpNMB …; test: antigen ELISA; remark: another data set of the same source

Q: How did the EC50 turn out when B17 was run?
A: 100 nM

Q: With B18 as the binder, how does the EC50 read?
A: 8.98 nM

Q: With B19 as the binder, how does the EC50 read?
A: 3.32 nM

Q: With B20 as the binder, how does the EC50 read?
A: 3.58 nM

Q: How did the EC50 turn out when B21 was run?
A: 5.47 nM

Q: B22 was tested. Which EC50 did it give?
A: 3.43 nM

Q: B23 was tested. Which EC50 did it give?
A: 4.42 nM

Q: B24 was tested. Which EC50 did it give?
A: 3.12 nM

Q: How did the EC50 turn out when B25 was run?
A: 38 nM

Q: How did the EC50 turn out when B26 was run?
A: 3.22 nM

Q: B27 was tested. Which EC50 did it give?
A: 5.16 nM

Q: With B28 as the binder, how does the EC50 read?
A: 8.36 nM

Q: Which EC50 does the source give for B29 here?
A: 6.6 nM

Q: How did the EC50 turn out when B30 was run?
A: 3.92 nM

Q: For B31, which EC50 is on record?
A: 3.13 nM

Q: For B32, which EC50 is on record?
A: 4.41 nM

Q: With B33 as the binder, how does the EC50 read?
A: 6.94 nM

Q: How did the EC50 turn out when B34 was run?
A: 4.31 nM

Q: With B35 as the binder, how does the EC50 read?
A: 8.88 nM

Q: For B36, which EC50 is on record?
A: 10.2 nM

Q: For B37, which EC50 is on record?
A: 5.61 nM

biological target: T1, recombinant human soluble gpNMB …; test: antigen ELISA, vs hGPN18-2_H2L3; remark: another data set of the same source

Q: Which Relative binding activity does the source give for B17 here?
A: 0.05

Q: For B18, which Relative binding activity is on record?
A: 0.63

Q: For B19, which Relative binding activity is on record?
A: 0.87

Q: Which Relative binding activity does the source give for B20 here?
A: 0.91

Q: How did the Relative binding activity turn out when B21 was run?
A: 0.69

Q: B22 was tested. Which Relative binding activity did it give?
A: 0.92

Q: With B23 as the binder, how does the Relative binding activity read?
A: 0.78

Q: B24 was tested. Which Relative binding activity did it give?
A: 0.97

Q: B25 was tested. Which Relative binding activity did it give?
A: 0.2

Q: B26 was tested. Which Relative binding activity did it give?
A: 0.88

Q: B27 was tested. Which Relative binding activity did it give?
A: 0.68

Q: With B28 as the binder, how does the Relative binding activity read?
A: 0.66

Q: Which Relative binding activity does the source give for B29 here?
A: 0.97

Q: Which Relative binding activity does the source give for B30 here?
A: 0.84

Q: Which Relative binding activity does the source give for B31 here?
A: 0.98

Q: B32 was tested. Which Relative binding activity did it give?
A: 0.82

Q: With B33 as the binder, how does the Relative binding activity read?
A: 0.6

Q: For B34, which Relative binding activity is on record?
A: 0.78

Q: With B35 as the binder, how does the Relative binding activity read?
A: 0.55

Q: With B36 as the binder, how does the Relative binding activity read?
A: 0.5

Q: How did the Relative binding activity turn out when B37 was run?
A: 0.86
